Values of other authors in PMC7619008.
pKd: −log10 of the molar value.

Target: substance P (Rattus norvegicus) (UniProt P06767)
Chain of UniProt P06767 (P06767 whole entry, looked up): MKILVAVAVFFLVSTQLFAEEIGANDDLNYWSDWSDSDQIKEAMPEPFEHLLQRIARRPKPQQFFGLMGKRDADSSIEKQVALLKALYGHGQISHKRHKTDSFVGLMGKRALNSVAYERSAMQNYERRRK

pKd: 8.52
Substance: NK1 receptor (from UniProt P14600)
